Where a chain is given by its changes, count along the chain named.
T1: rat GLP-1 receptor (rGLP-1r) (Rattus norvegicus, UniProt P32301)
T1 construct: expressed in transfected cells; host or cells: HEK293s or CHO cells
T1 sequence (P32301 22-463): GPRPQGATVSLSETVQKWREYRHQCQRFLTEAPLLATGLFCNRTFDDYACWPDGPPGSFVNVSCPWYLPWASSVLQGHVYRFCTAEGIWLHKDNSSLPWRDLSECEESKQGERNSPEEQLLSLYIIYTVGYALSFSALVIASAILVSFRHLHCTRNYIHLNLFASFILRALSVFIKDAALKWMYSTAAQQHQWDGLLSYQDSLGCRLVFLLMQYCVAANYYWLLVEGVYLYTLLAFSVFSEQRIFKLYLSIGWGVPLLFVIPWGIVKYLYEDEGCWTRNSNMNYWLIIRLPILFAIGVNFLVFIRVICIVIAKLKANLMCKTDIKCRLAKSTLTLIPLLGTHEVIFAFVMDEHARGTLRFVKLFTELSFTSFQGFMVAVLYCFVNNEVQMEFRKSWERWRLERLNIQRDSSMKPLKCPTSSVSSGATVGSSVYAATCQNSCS

T2: rat GIP receptor (rGIPr) (Rattus norvegicus, UniProt P43219)
T2 construct: expressed in transfected cells; host or cells: HEK293s or CHO cells
T2 sequence (P43219 19-455): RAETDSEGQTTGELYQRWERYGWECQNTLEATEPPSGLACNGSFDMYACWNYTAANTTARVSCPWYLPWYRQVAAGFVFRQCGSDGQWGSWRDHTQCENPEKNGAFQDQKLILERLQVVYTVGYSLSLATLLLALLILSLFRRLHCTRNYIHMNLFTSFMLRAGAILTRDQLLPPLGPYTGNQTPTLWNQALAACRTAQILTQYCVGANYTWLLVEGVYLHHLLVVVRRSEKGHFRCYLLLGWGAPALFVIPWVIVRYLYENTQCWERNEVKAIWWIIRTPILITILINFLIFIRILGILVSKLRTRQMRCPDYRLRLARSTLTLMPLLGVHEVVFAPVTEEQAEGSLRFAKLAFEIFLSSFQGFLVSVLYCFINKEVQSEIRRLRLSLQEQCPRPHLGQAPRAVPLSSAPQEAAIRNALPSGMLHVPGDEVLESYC

T3: mouse GLP-1 receptor (mGLP-1r) (Mus musculus, UniProt O35659)
T3 construct: expressed in transfected cells; host or cells: HEK293s or CHO cells
T3 sequence (O35659 22-463): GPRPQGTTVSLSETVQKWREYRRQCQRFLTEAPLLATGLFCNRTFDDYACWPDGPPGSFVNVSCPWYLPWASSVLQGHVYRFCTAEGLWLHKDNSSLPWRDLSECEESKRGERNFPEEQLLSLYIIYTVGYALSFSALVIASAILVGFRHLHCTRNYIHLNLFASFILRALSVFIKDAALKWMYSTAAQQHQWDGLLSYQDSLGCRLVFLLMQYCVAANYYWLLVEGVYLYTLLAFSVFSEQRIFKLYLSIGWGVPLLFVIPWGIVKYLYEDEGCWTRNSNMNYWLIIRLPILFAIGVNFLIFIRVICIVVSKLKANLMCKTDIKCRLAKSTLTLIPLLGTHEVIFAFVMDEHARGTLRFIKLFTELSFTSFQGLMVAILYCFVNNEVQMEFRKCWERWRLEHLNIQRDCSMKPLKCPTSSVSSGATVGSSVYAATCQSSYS

T4: mouse GIP receptor (mGIPr) (Mus musculus, UniProt Q0P543)
T4 construct: expressed in transfected cells; host or cells: HEK293s or CHO cells
T4 sequence (Q0P543 19-460): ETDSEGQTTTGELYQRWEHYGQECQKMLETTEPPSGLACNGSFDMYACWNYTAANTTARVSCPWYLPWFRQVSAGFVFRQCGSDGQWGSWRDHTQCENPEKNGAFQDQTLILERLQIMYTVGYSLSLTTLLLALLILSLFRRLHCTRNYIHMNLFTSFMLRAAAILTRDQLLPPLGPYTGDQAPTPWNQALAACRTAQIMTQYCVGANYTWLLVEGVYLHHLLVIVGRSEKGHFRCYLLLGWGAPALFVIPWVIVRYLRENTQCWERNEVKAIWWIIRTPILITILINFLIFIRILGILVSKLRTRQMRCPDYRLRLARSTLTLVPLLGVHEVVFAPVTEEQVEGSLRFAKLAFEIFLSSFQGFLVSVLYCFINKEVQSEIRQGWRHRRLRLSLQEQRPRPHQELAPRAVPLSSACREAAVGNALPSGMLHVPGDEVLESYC

T5: human GIP receptor (hGIPr) (Homo sapiens, UniProt P48546)
T5 construct: expressed in transfected cells
T5 sequence (P48546 22-466): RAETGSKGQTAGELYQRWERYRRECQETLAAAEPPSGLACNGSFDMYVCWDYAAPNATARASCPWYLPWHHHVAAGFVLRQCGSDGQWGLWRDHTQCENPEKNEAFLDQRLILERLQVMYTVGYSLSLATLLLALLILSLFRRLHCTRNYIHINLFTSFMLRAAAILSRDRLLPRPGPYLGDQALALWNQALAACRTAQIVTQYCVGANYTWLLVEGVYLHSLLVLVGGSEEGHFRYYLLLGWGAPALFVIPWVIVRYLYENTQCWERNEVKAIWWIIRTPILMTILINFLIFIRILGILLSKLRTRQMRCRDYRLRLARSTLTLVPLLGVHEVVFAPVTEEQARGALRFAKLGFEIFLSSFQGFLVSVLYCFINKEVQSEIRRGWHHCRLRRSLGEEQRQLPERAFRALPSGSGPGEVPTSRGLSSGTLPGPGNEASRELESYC

B1: IP310 (protein)
chain: YSEGTFTSDVSSYMERQAIDEFIAWLLKGKAAAGGSGSTASSGSGSATGGGGAATHTCPPC
B2: IP365 (protein)
chain: B1 chain with T5M, F6H, V10F, S12K, Y13L, M14L, K30G
B3: IP312 (protein)
chain: B1 chain with T7I, K30G
B4: IP366 (protein)
chain: B1 chain with V10Y, S11R, S12M, Y13L, M14K, K30G
B5: IP373 (protein)
chain: B1 chain with F6H, V10F, S12K, Y13L, M14L, K30G
B6: IP376 (protein)
chain: B1 chain with D9L, V10F, S12K, Y13L, M14L, K30G
B7: IP401 (protein)
chain: B1 chain with F6H, V10L, S12K, Y13L, M14L, K30G
B8: IP315 (protein)
chain: B1 chain with T7I, V10Y, M14L, K30G
B9: IP375 (protein)
chain: B1 chain with F6H, D9L, V10F, S12K, Y13L, M14L, K30G
B10: IP364 (protein)
chain: B1 chain with V10F, S12K, Y13L, M14L, K30G

biological target: T1, rat GLP-1 receptor (rGLP-1r); test: BSA-cAMP assay, cells expressing rat GLP-1 receptor; format: cell-based; settings: Batch 1; BSA-cAMP assay; read-out: rGLP1r cAMP activity EC50
Description: (§1) One basic cAMP assays was performed, differing in the medium used for the assay, the “BSA-cAMP assay”:
(§2) BSA-based assay medium: 0.1% bovine serum albumin (BSA) in
(§3) In certain aspects, the assay can also be carried out in medium supplemented with serum albumin that corresponds to the receptor being tested, e.g., human serum albumin for testing cAMP activity at hGIPr or hGLP-1r, rat serum albumin for testing cAMP activity at rGIPr or rGLP-1r, and so on. […] All sample dilutions were made in duplicate.
(§4) A frozen cryo-vial of cells expressing the receptor of interest was thawed rapidly in a water-bath, transferred to pre-warmed assay media and spun at 240×g for 5 minutes. Cells were re-suspended in assay buffer at an optimized concentration (e.g., hGLP-1r and hGIPr cells at 0.5×10^5 cells/ml).
(§5) To this, 5 μL cell suspension was added and the plates incubated at room temperature for 30 minutes.
(§6) cAMP levels were measured using a commercially available cAMP dynamic 2 HTRF kit (Cisbio, Cat #62AM4PEJ), following the two step protocol as per manufacturer's recommendations. In brief; anti-cAMP cryptate (donor fluorophore) and cAMP-d2 (acceptor fluorophore) were made up separately by diluting each 1/20 in conjugate & lysis buffer provided in the kit. 5 μL anti-cAMP cryptate was added to all wells of the assay plate, and 5 μL cAMP-d2 added to all wells except non-specific binding (NSB) wells, to which conjugate and lysis buffer was added. […] Data was transformed to % Delta F as described in manufacturer's guidelines and then transformed to percent activation of maximal native agonist response and analysed by 4-parameter logistic fit to determine EC50 values.
(§7) We used unconstrained 4 parameter logistic fit of data, curve mid-point to determine EC50. This was tested on two occasions, not two batches.
(§8) In order to be able to carry out in vivo studies in rodents, IP088 was tested for potency against the mouse receptors mGIPr and mGLP-1r as well as the rat receptors rGIPr and rGLP-1r, using cells expressing the respective receptors in the cAMP assay described above.

| Molecule | EC50 [nM] |
| --- | --- |
| B1 | 0.038 |
| B2 | 1.5 |
| B3 | 5.4 |
| B4 | 14 |
| B5 | 0.9 |
| B6 | 1.3 |
| B7 | 0.073 |
| B8 | 13 |
| B9 | 3.9 |
| B10 | 0.058 |

biological target: T2, rat GIP receptor (rGIPr); test: BSA-cAMP assay, cells expressing rat GIP receptor; format: cell-based; settings: Batch 1; BSA-cAMP assay; read-out: rGIPr cAMP activity EC50
Description: as §1, §2, §3, §4, §5, §6, §7, §8

| Molecule | EC50 [nM] |
| --- | --- |
| B1 | 5.2 |
| B2 | 0.12 |
| B3 | 1.2 |
| B4 | 0.016 |
| B5 | 0.035 |
| B6 | 0.13 |
| B7 | 0.014 |
| B8 | 0.096 |
| B9 | 0.07 |
| B10 | 0.02 |

biological target: T3, mouse GLP-1 receptor (mGLP-1r); test: BSA-cAMP assay, cells expressing mouse GLP-1 receptor; format: cell-based; settings: Batch 1; BSA-cAMP assay; read-out: mGLP1r cAMP activity EC50
Description: as §1, §2, §3, §4, §5, §6, §7, §8

| Molecule | EC50 [nM] |
| --- | --- |
| B1 | 1.4 |
| B2 | 11 |
| B3 | > 1060 |
| B4 | 100 |
| B5 | 9.2 |
| B6 | 21 |
| B7 | 13 |
| B8 | > 5460 |
| B9 | 49 |
| B10 | 0.69 |

biological target: T4, mouse GIP receptor (mGIPr); test: BSA-cAMP assay, cells expressing mouse GIP receptor; format: cell-based; settings: Batch 1; BSA-cAMP assay; read-out: mGIPr cAMP activity EC50
Description: as §1, §2, §3, §4, §5, §6, §7, §8

| Molecule | EC50 [nM] |
| --- | --- |
| B1 | 31 |
| B2 | 17 |
| B3 | 16 |
| B4 | 0.056 |
| B5 | 3.2 |
| B6 | 0.55 |
| B7 | 3.6 |
| B8 | 0.36 |
| B9 | 0.65 |
| B10 | 0.5 |

biological target: T6, human GLP-1 receptor (hGLP-1r) (Homo sapiens, UniProt P43220); test: BSA-cAMP assay, cells expressing human GLP-1 receptor; format: cell-based; settings: Batch 1; BSA-cAMP assay; read-out: hGLP1r cAMP activity EC50
T6 construct: expressed in transfected cells
T6 sequence (P43220 24-463): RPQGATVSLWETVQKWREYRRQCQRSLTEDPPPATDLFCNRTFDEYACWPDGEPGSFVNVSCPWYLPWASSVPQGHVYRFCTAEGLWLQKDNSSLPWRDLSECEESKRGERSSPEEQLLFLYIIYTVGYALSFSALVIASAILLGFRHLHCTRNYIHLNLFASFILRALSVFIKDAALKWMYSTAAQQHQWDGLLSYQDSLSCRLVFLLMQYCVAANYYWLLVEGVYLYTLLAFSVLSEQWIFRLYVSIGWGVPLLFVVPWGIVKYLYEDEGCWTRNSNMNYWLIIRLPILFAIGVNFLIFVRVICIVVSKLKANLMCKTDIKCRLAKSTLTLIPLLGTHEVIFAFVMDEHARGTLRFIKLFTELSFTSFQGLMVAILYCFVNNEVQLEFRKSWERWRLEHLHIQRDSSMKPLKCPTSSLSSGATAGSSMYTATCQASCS
Outline: (§9)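 EC50 came from an unconstrained 4-parameter logistic fit of HTRF cAMP data expressed as percent of maximal native agonist activation, tested on two occasions. Thawed receptor-expressing cells (hGLP-1r, hGIPr at 0.5×10^5 cells/ml) treated 30 min at room temperature in 0.1% BSA-containing medium; two distinct hGIPr lines.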

| Molecule | EC50 [nM] |
| --- | --- |
| B1 | 0.35 |
| B2 | 0.87 |
| B3 | > 5310 |
| B4 | 6.1 |
| B5 | 0.72 |
| B6 | 2.4 |
| B7 | 0.35 |
| B8 | > 5460 |
| B9 | 4 |
| B10 | 0.18 |

biological target: T7, human glucagon receptor (GCGr) (Homo sapiens, UniProt P47871); test: BSA-cAMP assay, cells expressing human glucagon receptor; format: cell-based; settings: Batch 1, read-out: hGCGr cAMP activity EC50
T7 construct: expressed in transfected cells; host or cells: HEK293s or CHO cells
T7 sequence (P47871 26-477): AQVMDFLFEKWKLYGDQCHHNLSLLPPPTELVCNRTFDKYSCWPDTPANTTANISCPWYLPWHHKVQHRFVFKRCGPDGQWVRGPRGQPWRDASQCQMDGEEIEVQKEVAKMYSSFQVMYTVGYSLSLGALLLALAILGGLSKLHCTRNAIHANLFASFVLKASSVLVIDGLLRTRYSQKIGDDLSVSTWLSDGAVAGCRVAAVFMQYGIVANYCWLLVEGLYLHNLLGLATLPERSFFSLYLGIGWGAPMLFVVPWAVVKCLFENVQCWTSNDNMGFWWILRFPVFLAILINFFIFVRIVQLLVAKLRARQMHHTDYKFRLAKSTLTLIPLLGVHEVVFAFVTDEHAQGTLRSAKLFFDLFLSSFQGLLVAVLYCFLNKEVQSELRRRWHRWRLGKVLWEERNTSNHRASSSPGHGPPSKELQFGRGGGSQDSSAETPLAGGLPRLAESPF
Description: as §1, §2, §3, §4, §5, §6, §7

| Molecule | EC50 [nM] |
| --- | --- |
| B1 | 3700 |
| B2 | > 10700 |
| B3 | > 5310 |
| B4 | > 10200 |
| B5 | > 6790 |
| B6 | > 7430 |
| B7 | 3100 |
| B8 | 280 |
| B9 | > 11700 |
| B10 | 610 |

biological target: T5, human GIP receptor (hGIPr); test: BSA-cAMP assay, cells expressing human GIP receptor; format: cell-based; settings: Batch 1; BSA-cAMP assay; read-out: hGIPr cAMP activity EC50
Outline: as §9

| Molecule | EC50 [nM] |
| --- | --- |
| B1 | 0.15 |
| B2 | 0.02 |
| B3 | 0.048 |
| B4 | 0.14 |
| B5 | 0.0054 |
| B6 | 0.083 |
| B7 | 3.5 |
| B8 | 0.024 |
| B9 | 0.078 |
| B10 | 0.0085 |
